Reference: publication PMC3229523, “Identification of Lactoferricin B Intracellular Targets Using an Escherichia coli Proteome Chip” (PLoS ONE, 2011)
Ends that are not written are not given here. * marks the point of attachment. Biotin = O=C1N[C@H]2[C@H](CS[C@H]2CCCCC(=O)*)N1

How the values were obtained:
Assay in all cases: peptide or protein array; E. coli proteome chip: purified His-tagged proteins printed in duplicate on Fullmoon slides, blocked with 1% BSA; 10 nM N-terminal biotinylated LfcinB with 1% BSA, room temperature, 1 h; detected with DyLight 649-labeled streptavidin, ratio to DyLight 549-labeled anti-His antibody; ProCAT normalisation, local cut-off; triplicate chips
Conditions in all cases: both partners purified
Adi = target: T1, Adi (E. coli K-12, UniProt P28629 1-755)
T1 construct: Adi, E. coli K-12
T1 sequence (looked up): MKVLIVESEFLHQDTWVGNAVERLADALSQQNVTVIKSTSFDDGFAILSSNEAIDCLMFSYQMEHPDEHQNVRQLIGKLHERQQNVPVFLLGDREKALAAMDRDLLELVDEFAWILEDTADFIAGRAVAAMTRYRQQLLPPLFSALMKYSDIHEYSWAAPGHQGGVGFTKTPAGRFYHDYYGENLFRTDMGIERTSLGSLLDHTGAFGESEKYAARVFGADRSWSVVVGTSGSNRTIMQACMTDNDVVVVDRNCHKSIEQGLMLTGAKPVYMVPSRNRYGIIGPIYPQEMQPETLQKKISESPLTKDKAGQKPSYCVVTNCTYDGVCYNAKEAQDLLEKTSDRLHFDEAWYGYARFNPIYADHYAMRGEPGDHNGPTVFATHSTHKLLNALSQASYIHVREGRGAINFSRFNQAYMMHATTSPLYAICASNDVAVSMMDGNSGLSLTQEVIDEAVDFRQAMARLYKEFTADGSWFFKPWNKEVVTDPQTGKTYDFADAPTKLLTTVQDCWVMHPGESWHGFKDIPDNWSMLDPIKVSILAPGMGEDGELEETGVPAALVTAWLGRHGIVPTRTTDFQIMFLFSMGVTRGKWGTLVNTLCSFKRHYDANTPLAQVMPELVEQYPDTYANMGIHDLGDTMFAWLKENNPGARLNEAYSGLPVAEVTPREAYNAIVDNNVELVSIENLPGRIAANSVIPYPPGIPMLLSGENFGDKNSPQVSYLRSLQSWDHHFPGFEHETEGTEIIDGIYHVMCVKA

YegJ = target: T2, YegJ (E. coli K-12, UniProt P76394 1-153)
T2 construct: YegJ, E. coli K-12
T2 sequence (looked up): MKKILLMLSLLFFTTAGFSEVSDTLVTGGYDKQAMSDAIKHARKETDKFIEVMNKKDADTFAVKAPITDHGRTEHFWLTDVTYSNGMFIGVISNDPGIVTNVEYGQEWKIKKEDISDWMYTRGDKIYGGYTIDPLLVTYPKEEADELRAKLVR

YgiG = target: T3, YgiG (E. coli K-12, UniProt P0AC16 1-122)
T3 construct: YgiG, E. coli K-12
T3 sequence (looked up): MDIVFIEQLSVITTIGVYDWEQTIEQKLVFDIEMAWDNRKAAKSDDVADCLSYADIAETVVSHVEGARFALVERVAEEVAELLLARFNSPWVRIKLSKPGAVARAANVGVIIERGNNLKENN

YrfI = target: T4, YrfI (E. coli K-12, UniProt P0A6Y5 1-292)
T4 construct: YrfI, E. coli K-12
T4 sequence (looked up): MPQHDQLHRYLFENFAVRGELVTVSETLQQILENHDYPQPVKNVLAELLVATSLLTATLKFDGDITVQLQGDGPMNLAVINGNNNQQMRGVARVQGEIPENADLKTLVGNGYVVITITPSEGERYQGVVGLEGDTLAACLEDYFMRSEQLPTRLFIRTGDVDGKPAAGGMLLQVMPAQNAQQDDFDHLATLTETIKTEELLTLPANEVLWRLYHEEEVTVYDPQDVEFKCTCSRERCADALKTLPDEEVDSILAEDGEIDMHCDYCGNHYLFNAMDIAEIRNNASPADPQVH

HyaF = target: T5, HyaF (E. coli K-12, UniProt P19932 1-285)
T5 construct: HyaF, E. coli K-12
T5 sequence (looked up): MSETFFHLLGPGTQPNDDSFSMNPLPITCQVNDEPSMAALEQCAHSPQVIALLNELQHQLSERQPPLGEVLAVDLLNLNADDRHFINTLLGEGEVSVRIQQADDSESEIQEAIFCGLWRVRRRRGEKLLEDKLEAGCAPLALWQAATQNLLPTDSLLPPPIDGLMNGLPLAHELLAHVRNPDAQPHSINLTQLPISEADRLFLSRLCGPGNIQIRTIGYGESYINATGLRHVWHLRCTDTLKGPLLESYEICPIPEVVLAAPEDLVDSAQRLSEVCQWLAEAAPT

[1] = target: T6, ribonucleoside-diphosphate reductase 2, β subunit (E. coli K-12, UniProt P37146 1-319)
T6 construct: NrdF, ribonucleoside-diphosphate reductase 2, β subunit, E. coli K-12; no measurement of the oligomer here; also called NrdF
T6 sequence (P37146 whole entry): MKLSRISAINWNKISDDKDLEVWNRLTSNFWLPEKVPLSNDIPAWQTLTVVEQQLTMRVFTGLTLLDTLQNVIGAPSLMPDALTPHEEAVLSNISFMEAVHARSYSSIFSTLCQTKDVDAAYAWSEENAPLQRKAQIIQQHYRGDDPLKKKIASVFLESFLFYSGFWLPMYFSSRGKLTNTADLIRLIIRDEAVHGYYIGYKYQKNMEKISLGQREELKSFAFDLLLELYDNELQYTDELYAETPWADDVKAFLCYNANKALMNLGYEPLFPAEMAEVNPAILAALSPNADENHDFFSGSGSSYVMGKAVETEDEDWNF

Measured: binding result

B1: N-terminal biotinylated Lactoferricin B (peptide, UniProt P24627 36-60, looked up)
peptide: Biotin-FKCRRWQWRMKKLGAPSITCVRRAF
modifications: ends and bridges not checked
notes: lactoferricin B (LfcinB), cationic antimicrobial peptide of 25 amino acids; also called biotinylated LfcinB; biotin-labeled LfcinB; source: bought: Kelowna Inc
binds: all assays above
